# B1: Luc81-6G01: LucPplYG mutant luciferase, SEQ ID NO:26 (protein)
# chain: MMKREKNVIYGPEPLHPLEDLTAGEMLFRALRKHSHLPQALVDVVGDESLSYKEFFEATVLLAQSLHNCGYKMNDVVSICAENNTRFFIPVIAAWYIGMIVAPVNESYIPDELCKVMGISKPQIVFTTKNILNKVLEVQSRTNFIKRIIILDTVENIHGCESLPNGISRYSDGNIANFKPLHFDPVEQVAAILCSSGTTGLPKGVMQTHQNICVRLIHALDPRAGTQLIPGVTVLVYLPFFHAFGFSITLGYFMVGLRVIMFRRFDQEAFLKAIQDYEVRSVINVPSVILFLSKSPLVDKYDLSSLRELCCGAAPLAKEVAEVAAKRLNLPGIRCGFGLTESTSANIHSLRDEFKSGSLGRVTPLMAAKIADRETGKALGPNQVGELCIKGPMVSKGYVNNVEATKEAIDDDGWLHSGDFGYYDEDEHFYVVDRYKELIKYKGSQVAPAELEEILLKNPCIRDVAVVGIPDLEAGELPSAFVVKQPGKEITAKEVYDYLAERVSHTKYLRGGVRFVDSIPRNVTGKITRKELLKQLLEKAGG
# modifications: Mutant luciferase
# Key:
# [1] = Luminescence signal intensity and signal stability in vitro of LucPpl luciferases; format: biochemical; settings: lysate with 1% Triton X-100
# From the text: For luminescence assays requiring only a few second, the wild-type yellow-green-emitting luciferase produces a very stable signal (the initial rise in the signal evident in the first 2 seconds is due to the response time of the luminometer, not the kinetics of the luminescence reaction). However, the signal intensity was reduced about 30% by the presence of 1% Triton X-100 in the lysate (diluted 1:5 with the addition of assay reagent). In contrast, the luminescence intensity of the mutant luciferases was unaffected by the presence of Triton X-100. […] However, the data are not corrected for the efficiency of enzyme expression in E. coli. Thus, differences in luminescence intensity may not correlate to changes in enzyme specific activity, nor is the expression efficiency in E. coli necessarily relevant to expression in mammalian cells.
# For batches of assays requiring more than an hour to process, the signal stability of the yellow-green-emitting luciferase is inadequate under the conditions tested. […] Attempts to correct this by the in vitro evolution yielded mixed results. The signal stability of all three mutant enzymes was generally much improved over the parent yellow-green enzyme for three hours after substrate addition. However, this was accompanied by a greater initial decrease in luminescence during the first half-hour. […]
# [2] = Robotic thermostability screen of LucPpl mutants: decrease of activity over 10 hours at screening temperature; format: physicochemical; settings: 47° C., third cycle of random mutagenesis
# Method: “Enzyme stability” was determined by the rate of activity loss from cell lysates over 10 hours. In successive rounds of evolution the incubation temperature of the lysates was increased.
# To prepare luciferases having certain performance, a method for in vitro evolution of enzyme function, as described above, was employed. Briefly described, the method is a recursive process of generating random mutations and screening for desirable properties. It was originally developed primarily to increase the thermostability of luciferases, although other enzymological characteristics are also subject to optimization by the screening criteria. A slightly different strategy was used to achieve the properties described above since two related luciferases needed to be optimized concomitantly.
# The luciferases from P. plagiophthalamus have 13 cysteines, which are potentially sensitive to oxidation. This is in contrast to the commonly used firefly luciferase, which has only 4 cysteines. To remove any cysteines that may limit enzyme stability, oligonucleotide-directed mutagenesis was used to randomize the cysteine codons. Three sets of oligonucleotides were used: non-conserved cysteines in regions of low sequence homology (positions 69, 114, 160, 194, 335, and 460), non-conserved cysteines in regions of higher sequence homology (positions 127, 213, 310, and 311), and highly conserved cysteines (positions 60, 80, and 388). […]
# The random mutagenesis process was repeated using the best clone from the previous cycle of mutagenesis (Luc53-0G01). […] The discrepancy in measured activity of Luc53-0G01 in this cycle of mutagenesis compared to the previous cycle may be due to changes in the assay procedure and recalibration of the incubator temperature. It should be noted that the recorded thermostabilities from each stage of mutagenesis are calculated from robotic data using abbreviated assay procedures. The data are intended to indicate the relative stabilities of enzyme mutants when assayed in the same screen, rather than providing an accurate quantitation of thermostability.
# colonies of E. coli = experiment: Luminescence of E. coli colonies expressing LucPpl luciferases at room temperature and on heating; format: cell-based; settings: room temperature
# Method: From colonies of E. coli expressing the luciferases, Luc81-5F01 and Luc81-6G01 produced luminescence most rapidly at room temperature upon addition of luciferin. The luminescence was more rapid and brighter than colonies expressing the wild-type green- and yellow-green-emitting luciferases. The luminescence from all the selected colonies appeared green-shifted compared to the yellow-green parent clone. […] Some of the mutant clones loose their luminescence at 65° C., but the three preferred clones remain bright above 70° C. No spectral changes upon heating the colonies were evident until above 70° C., where those clones still retaining activity began to red-shift slightly (sometime, the initial phases of enzyme denaturation are accompanied by a red shift in the luminescence). The luminescence characteristics of the three preferred mutants are quite similar.
molecule,measurement,setting,value
B1,stability of luminescence signal in assays of a few seconds,[1],most stable signal
same,decrease of activity,[2],100 fold
same,onset of luminescence in E. coli colonies upon addition of luciferin,colonies of E. coli,most rapidly
